Where two headings read alike, the source gives them in different places. Bridges are numbered along the chain shown (N, C = ends). Where no end group is shown, it is not given here. [ ]: non-standard residue; d: D form. Aoc = NCCCCCCCC(=O)O Bounds are passed on as bounds.

What is called Ki is a measure of affinity in units of concentration, obtained from inhibition or displacement. Read a low Ki as a stronger hold on the target.

The target of experiment [1] is human hippocampal Y2 receptor (clone CG-13) (human) (UniProt P49146). The experiment can be described thus: 125I-PYY displacement, COS-7 membranes, Ki from IC50.
The target is the same in experiment [2]. The experiment is described as above. The source holds these as a separate data set.
A further experiment addresses T1, human Y4 receptor (human, UniProt P50391 1-375).
T1 construct: whole, on cells; transiently expressed in COS-7 cells; membranes used
The description is as above.

The target of experiment [3] is T2, human Y1 receptor (human, UniProt P25929 1-384).
T2 construct: whole, on cells; transiently expressed in COS-7 cells; membranes used; also called Y1 gene
T2 sequence (looked up): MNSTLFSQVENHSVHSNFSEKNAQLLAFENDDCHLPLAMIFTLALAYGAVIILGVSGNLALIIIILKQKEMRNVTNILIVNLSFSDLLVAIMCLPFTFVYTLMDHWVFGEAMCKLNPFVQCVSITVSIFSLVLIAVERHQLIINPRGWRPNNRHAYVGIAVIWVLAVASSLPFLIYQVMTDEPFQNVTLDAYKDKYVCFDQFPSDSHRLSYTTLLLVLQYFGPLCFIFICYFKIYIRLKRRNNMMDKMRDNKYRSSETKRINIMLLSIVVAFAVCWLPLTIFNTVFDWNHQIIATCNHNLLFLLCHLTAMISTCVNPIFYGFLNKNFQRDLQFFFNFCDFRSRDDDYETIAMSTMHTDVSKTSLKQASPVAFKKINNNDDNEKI
The description is as above.

The subject of a further experiment is Y1 receptor. The experiment can be described thus: Whole cell 125I-PYY binding, COS-7 cells transfected with the Y1 gene. Set-up: species or system human. The following applies: 100 fold excess of cold peptide. The procedure: DNA from pools of ≈5000 independent clones was transfected into COS-7 cells by a modification of the DEAE-dextran procedure (17). COS-7 cells were grown in Dulbecco's Modified Eagle Medium (DMEM) supplemented with 10% fetal calf serum, 100 U/mL of penicillin, 100 μg/mL of streptomycin, 2 mM L-glutamine (DMEM-C) at 37° C. in 5% CO2. The cells were seeded one day before transfection at a density of 30,000 cells/cm^2 in 6 well plates (Becton Dickinson, Lincoln Park, N.J.). On the next day, cells were washed twice with Phosphate Buffer Saline (PBS), 400 μl of transfection cocktail was added containing 1/10 of the DNA from each pool and DEAE-dextran (500 μg/mL) in PBS. After a 30 min. incubation at 37° C., 1.6 mL of chloroquine (80 μM in DMEM-C) was added and the cells incubated a further 2.5 hours at 37° C. The media was aspirated from each well and 1 mL of 10% DMSO in DMEM-C added. After 2.5 min. incubation at room temperature, the media was aspirated, each well washed once with 1 mL PBS and the cells incubated 24 hours in DMEM-C. […]
Since both Y1 and Y2 receptor subtypes are expressed in the hippocampus (2), we analyzed the DNA of positive pools by PCR with Y1 specific primers. […]

For experiment [4], the target named is rat Y2a receptor (encoded by rs5a) (rat). The experiment is described as follows: 125I-PYY displacement, COS-7 membranes, Ki from IC50.
The target in experiment [5] is human hippocampal Y2 receptor (clone CG-13) (human) (UniProt P49146). The experiment is described as follows: cell-based or functional assay.
For experiment [6], the target named is T3, human hippocampal Y2 receptor (clone CG-13) (human, UniProt P49146 1-381).
T3 sequence: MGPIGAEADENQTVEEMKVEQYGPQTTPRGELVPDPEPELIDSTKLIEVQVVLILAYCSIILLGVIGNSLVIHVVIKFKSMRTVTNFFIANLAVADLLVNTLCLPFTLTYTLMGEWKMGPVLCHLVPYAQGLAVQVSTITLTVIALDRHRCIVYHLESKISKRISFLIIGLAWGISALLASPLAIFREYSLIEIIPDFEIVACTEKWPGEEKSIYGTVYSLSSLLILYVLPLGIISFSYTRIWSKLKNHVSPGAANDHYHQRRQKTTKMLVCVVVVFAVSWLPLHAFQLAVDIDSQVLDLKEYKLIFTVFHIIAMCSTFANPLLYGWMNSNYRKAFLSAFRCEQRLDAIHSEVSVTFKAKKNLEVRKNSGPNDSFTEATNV
The experiment can be described thus: cell-based or functional assay.

The target of experiment [7] is T4, Y2-like receptor population expressed by human SK-N-Be(2) neuroblastoma cells (human).
T4 chain: T3 sequence
The experiment is described as follows: 125I-PYY displacement, SK-N-Be(2) membranes, Ki from IC50.

Experiment [8] has as its target T3, human hippocampal Y2 receptor (clone …). The experiment can be described thus: 125I-PYY displacement binding assay (Table 9, binding column).
For experiment [9] the target is unchanged. The experiment is described as follows: 125I-PYY displacement, COS-7 membranes, Ki from IC50.
For experiment [10], the target named is T2, human Y1 receptor. The description is as above. This is another data set of the same source.
The target of experiment [11] is T3, human hippocampal Y2 receptor (clone …). The experiment is described as above. The source holds these as a separate data set.
Experiment [12] has as its target T5, rat Y2a receptor (encoded by rs5a) (rat).
T5 chain: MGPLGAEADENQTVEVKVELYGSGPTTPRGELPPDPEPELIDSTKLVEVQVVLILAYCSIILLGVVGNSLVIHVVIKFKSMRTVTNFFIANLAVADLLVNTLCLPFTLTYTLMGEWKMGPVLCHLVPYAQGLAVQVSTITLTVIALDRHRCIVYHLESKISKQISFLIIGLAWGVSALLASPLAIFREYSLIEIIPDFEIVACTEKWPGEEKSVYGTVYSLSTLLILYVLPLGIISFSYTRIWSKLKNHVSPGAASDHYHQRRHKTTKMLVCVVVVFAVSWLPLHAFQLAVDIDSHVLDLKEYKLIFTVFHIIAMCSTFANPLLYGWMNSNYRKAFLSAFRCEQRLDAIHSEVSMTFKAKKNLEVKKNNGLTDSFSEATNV
Described as above.

Experiment [13] addresses T2, human Y1 receptor. The description is as above. The source holds these as a separate data set.
Experiment [14] deals with T3, human hippocampal Y2 receptor (clone …). The experiment is described as above. This is another data set of the same source.

T1 sequence (P50391 whole entry): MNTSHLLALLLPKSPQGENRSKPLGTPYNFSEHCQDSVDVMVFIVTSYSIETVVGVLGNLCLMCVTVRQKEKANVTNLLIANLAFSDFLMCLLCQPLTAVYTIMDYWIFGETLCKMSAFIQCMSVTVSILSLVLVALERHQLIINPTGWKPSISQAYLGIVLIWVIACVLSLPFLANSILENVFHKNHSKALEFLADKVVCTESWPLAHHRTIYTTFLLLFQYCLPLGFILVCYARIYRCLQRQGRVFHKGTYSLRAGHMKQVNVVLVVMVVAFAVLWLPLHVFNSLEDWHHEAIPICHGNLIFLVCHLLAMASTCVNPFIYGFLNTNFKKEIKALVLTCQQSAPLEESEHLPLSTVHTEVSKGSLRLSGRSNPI

With “human NPY free acid (from UniProt P01303 29-64) (peptide)”, the Ki in experiment [1] is more than 1000 nM; in [2] it was more than 300 nM.
In the case of PP, avian (peptide), the values for the inhibition constant Ki (with human Y4 receptor; with human Y1 receptor [3]; in experiment [1]) were 7 nM, 400 nM and more than 1000 nM, respectively.
Turning to “[Leu^31,Pro^34]NPY: analog of NPY modified at residues 31 and 34, species not stated”, in the experiment on Y1 receptor, the “inhibition of binding of 125I-PYY” value is recorded as “totally inhibited”.
As to PP, salmon (peptide), the inhibition constant (Ki) with human Y4 receptor came to 3.2 nM; in the experiment with human Y1 receptor [3], 0.2 nM; in [4], 0.17 nM. Also, the EC50, inhibition of forskolin-stimulated cAMP accumulation, stably transfected 293 cells in [5] came to 0.07 nM.

B1: porcine NPY22-36 (peptide, UniProt P01304 31-45, looked up)
peptide: SALRHYINLITRQRY-NH2
notes: range 22-36; also called NPY22-36, porcine
As for B1, the “EC50, inhibition of forskolin-stimulated cAMP accumulation, stably transfected 293 cells” value (shortened to “EC50, inhibition”) in experiment [6] is 2.3 nM. In addition, the Ki turned out to be 3.2 nM in [7]; 18 nM in experiment [8]; 18 nM in experiment [9]; 170 nM with human Y1 receptor [10]; 4.6 nM in [11].

B2: porcine PYY13-36 (peptide, UniProt P68005 13-36, looked up)
peptide: SPEELSRYYASLRHYLNLVTRQRY-NH2
notes: range 13-36; also called PYY13-36, porcine
For B2, the inhibition constant (Ki) in experiment [11] and in experiment [12] was 1.5 nM each time.

B3: porcine NPY13-36 (peptide, UniProt P01304 22-45, looked up)
peptide: PAEDLARYYSALRHYINLITRQRY-NH2
notes: range 13-36; also called NPY13-36, porcine
Turning to B3, the inhibitory constant (Ki) in experiment [7] is 1.8 nM; with human Y4 receptor it was 38 nM.

B4: porcine NPY20-36 (peptide, UniProt P01304 29-45, looked up)
peptide: YYSALRHYINLITRQRY-NH2
notes: range 20-36; also called NPY20-36, porcine
As for B4, the results for the Ki in the experiment with human Y1 receptor [13], with human Y4 receptor and with human Y1 receptor [10] were 63 nM, 120 nM and 62 nM, respectively.

B5: porcine NPY26-36 (peptide, UniProt P01304 35-45, looked up)
peptide: HYINLITRQRY-NH2
notes: range 26-36; also called NPY26-36, porcine
Take B5: the inhibition constant (Ki) is 70 nM in experiment [7]; more than 1000 nM in the experiment with human Y1 receptor [13]; 380 nM in [9]; 210 nM in experiment [11]; 380 nM in [14].
For APSEPHHPGDQATQDQLAQYYSDLYQYITFVTRPRF-NH2 (also called frog PP) [PP, frog], the figures for the Ki (in the experiment with human Y1 receptor [13]; in the experiment with human Y4 receptor; in [9]) were 96 nM, 61 nM and more than 1000 nM, respectively.
As for APLEPMYPGDYATHEQRAQYETQLRRYINTLTRPRY-NH2 (peptide, UniProt P06303 30-65, looked up, mature; also called rat PP) [PP, rat], the Ki with human Y1 receptor [13] is 460 nM; with human Y4 receptor it was 0.18 nM; in [9], more than 1000 nM; in experiment [14] it was more than 1000 nM.
Take APLEPEYPGDNATPEQMAQYAAELRRYINMLTRPRY-NH2 (peptide, UniProt P01302 30-65, looked up, mature; also called bovine PP) [PP, bovine]: the inhibition constant Ki with human Y1 receptor [13] was 240 nM; with human Y4 receptor, 0.05 nM; in experiment [9], 830 nM; in experiment [14], more than 825 nM.
YPSKPDNPGEDAPAEDMARYYSAL-NH2 (peptide, UniProt P01303 29-52, looked up, range 1-24) [NPY1-24 amide, human] yielded a Ki in [9] of more than 1000 nM.

B6: porcine NPY16-36 (peptide, UniProt P01304 25-45, looked up)
peptide: DLARYYSALRHYINLITRQRY-NH2
notes: range 16-36; also called NPY16-36, porcine
For B6, in experiment [6], the “EC50, inhibition” value was found to be 1.8 nM. Moreover, the inhibition constant Ki in experiment [7] came out at 5 nM; in [8] it was 3.6 nM; with human Y4 receptor, 54 nM; in experiment [9] it was 3.6 nM; in [11], 3.8 nM.

B7: C2-NPY, porcine (peptide)
chain: YCSK[Aoc]RHCINLITRQRY-NH2
modifications: disulfide 2-8; N-terminus assumed
SMILES: CC[C@H](C)[C@H](NC(=O)[C@@H]1CSSC[C@H](NC(=O)[C@@H](N)Cc2ccc(O)cc2)C(=O)N[C@@H](CO)C(=O)N[C@@H](CCCCN)C(=O)NCCCCCCCC(=O)N[C@@H](CCCNC(=N)N)C(=O)N[C@@H](Cc2c[nH]cn2)C(=O)N1)C(=O)N[C@@H](CC(N)=O)C(=O)N[C@@H](CC(C)C)C(=O)N[C@H](C(=O)N[C@H](C(=O)N[C@@H](CCCNC(=N)N)C(=O)N[C@@H](CCC(N)=O)C(=O)N[C@@H](CCCNC(=N)N)C(=O)N[C@@H](Cc1ccc(O)cc1)C(N)=O)[C@@H](C)O)[C@@H](C)CC
As to B7, in experiment [6], the “EC50, inhibition” value is 0.14 nM. The inhibitory constant (Ki) in [8] was found to be 3.5 nM; with human Y1 receptor [13], 73 nM; with human Y4 receptor it was 120 nM; in experiment [9], 3.5 nM.

Source of the values: US6420532B1, “Method of obtaining compositions comprising Y2 specific compounds” (Synaptic Pharmaceutical Corporation, priority 1994, dated 2002).
